Assay results from patent publication US20180155451A1 (published 2018).
Where a chain is given by its changes, count along the chain named. Numbers in names are those of the source. Where two headings read alike, the source gives them in different places.

Assays:
[1] = target: T1, FcγRIIIa extracellular domain with C-terminal His tag (human, UniProt P08637 17-208); test: SPR (Biacore), ratio of KD values for FcγRIIIa
T1 construct: extracellular domain; also called FcgRIIIa; CD16A
Excerpt: GpH7-A57 (SEQ ID NO: 40) resulting from the introduction of all of S239D, A330L, and I332E into GpH7-A5; GpH7-B78 (SEQ ID NO: 41) resulting from the introduction of all of S239D, A330L, and I332E into GpH7-B3; GpH7-TA7 (SEQ ID NO: 31) resulting from the introduction of all of L234Y, G236W, and S298A into GpH7-A5; and GpH7-TA45 (SEQ ID NO: 32) resulting from the introduction of all of L234Y, G236W, and S298A into GpH7-B3. […] The prepared antibodies were compared for the FcγRIIIa-binding activity using, as an indicator, KD for FcγRIIIa that was determined according to the method described in Reference Example 2.
(§1) Analysis of interaction between objective antibody and the FcγR was carried out using Biacore T100 (GE Healthcare). HBS-EP+ (GE Healthcare) was used as the running buffer, and the measurement temperature was set to 25° C. Chips produced by immobilizing the antigen peptide by the amine coupling method to a Series S Sencor Chip CM5 (GE Healthcare), or alternatively, chips produced by allowing preliminarily biotinylated antigen peptides to interact with and immobilize onto a Series S Sensor Chip SA (certified) (GE Healthcare) were used. Antibodies of interest were captured onto an antigen peptide-immobilized chip, and allowed to interact to each FcγR diluted with running buffer. To regenerate and repeatedly use the chip, the antibodies captured on the chip were washed off by reacting 10 mM glycine-HCl, pH 1.5.

[2] = target: T1, FcγRIIIa extracellular domain with …; test: SPR (Biacore), antibody captured, FcγRIIIa as analyte, 1:1 Langmuir kinetic fit
Protocol: The prepared antibodies were compared for the FcγRIIIa-binding activity using, as an indicator, KD for FcγRIIIa that was determined according to the method described in Reference Example 2.
as §1
(§2) The FcγR-binding activity of each antibody was assessed primarily using as an indicator the FcγR-binding activity and dissociation constant for FcγR.

[3] = target: T1, FcγRIIIa extracellular domain with …; test: SPR (Biacore), ratio of KD values for FcγRIIIa; remark: listed apart in the source
Protocol: (§3) To assess this hypothesis, GpH7-A53 (SEQ ID NO: 42) resulting from the introduction of S239D into GpH7-A5 was constructed, and, this is combined with GpH7-B78 introduced with S239D, A330L, and I332E, and the expression and preparation were performed according to the method described in Reference Example 1. The effect of the combination of S239D and S239D, A330L, and I332E was assessed by comparing the FcγRIIIa binding between the heterodimerized and homodimerized antibodies with S239D, A330L, and I332E according to the method described in Reference Example 2 (Table 14).
as §1

[4] = target: T1, FcγRIIIa extracellular domain with …; test: SPR (Biacore), antibody captured, FcγRIIIa as analyte, 1:1 Langmuir kinetic fit; remark: listed apart in the source
Protocol: as §3, §1, §2

[5] = target: T1, FcγRIIIa extracellular domain with …; test: SPR (Biacore), ratio of KD values for FcγRIIIa; remark: listed apart in the source
Excerpt: (§4) Then, GpH7-TA54 (SEQ ID NO: 46) resulting from the introduction of Y296W into GpH7-TA22 was constructed, and expressed and prepared in combination with GpH7-B78 according to the method described in Reference Example 1. Furthermore, GpH7-TA58 (SEQ ID NO: 45) resulting from the introduction of Y296W into GpH7-B78 was constructed, and expressed and prepared in combination with GpH7-TA22 according to the method described in Reference Example 1. To assess the effect of combination with Y296W, the prepared antibodies were compared for the FcγRIIIa-binding activity according to the method described in Reference Example 2 (Table 17).
as §1

[6] = target: T1, FcγRIIIa extracellular domain with …; test: SPR (Biacore), antibody captured, FcγRIIIa as analyte, 1:1 Langmuir kinetic fit; remark: listed apart in the source
Excerpt: as §4, §1, §2

[7] = target: T1, FcγRIIIa extracellular domain with …; test: SPR (Biacore), ratio of KD values for FcγRIIIa; remark: listed apart in the source
Excerpt: (§5) First, it was considered which H chain should be introduced with Y296W. GpH7-TA52 (SEQ ID NO: 44) resulting from the introduction of the mutation Y296W into GpH7-TA7 was constructed, and expressed and prepared in combination with GpH7-B78 according to the method described in Reference Example 1. Furthermore, GpH7-TA58 (SEQ ID NO: 45) resulting from the introduction of Y296W into GpH7-B78 was constructed, and expressed and prepared in combination with GpH7-TA22 according to the method described in Reference Example 1. To assess the effects of combinations with Y296W, the prepared antibodies were compared for the FcγRIIIa-binding activity according to the method described in Reference Example 2 (Table 16).
as §1

[8] = target: T1, FcγRIIIa extracellular domain with …; test: SPR (Biacore), antibody captured, FcγRIIIa as analyte, 1:1 Langmuir kinetic fit; remark: listed apart in the source
Excerpt: as §5, §1, §2

T1 sequence (P08637 17-208): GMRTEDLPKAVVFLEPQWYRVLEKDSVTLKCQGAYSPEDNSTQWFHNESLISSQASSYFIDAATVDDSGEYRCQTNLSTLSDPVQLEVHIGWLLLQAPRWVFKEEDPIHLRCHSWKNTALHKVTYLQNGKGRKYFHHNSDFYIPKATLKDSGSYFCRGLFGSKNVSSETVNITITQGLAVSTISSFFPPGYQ

B1: GpH7-A5/GpH7-B78/GpL16-k0 (antibody, human IgG1, kappa)
heavy 1: not shown
heavy 2: QVQLVQSGAEVKKPGASVTVSCKASGYTFTDYEMHWIRQPPGEGLEWIGAIDPKTGDTAYSESFQDRVTLTADKSTSTAYMELSSLTSEDTAVYYCTRFYSYTYWGQGTLVTVSSASTKGPSVFPLAPSSKSTSGGTAALGCLVKDYFPEPVTVSWNSGALTSGVHTFPAVLQSSGLYSLSSVVTVPSSSLGTQTYICNVNHKPSNTKVDKKVEPKSCDKTHTCPPCPAPELLGGPDVFLFPPKPKDTLMISRTPEVTCVVVDVSHEDPEVKFNWYVDGVEVHNAKTKPREEQYNSTYRVVSVLTVLHQDWLNGKEYKCKVSNKALPLPEEKTISKAKGQPREPQVYTLPPSRDELTKNQVSLTCLVKGFYPSDIAVEWESNGQPENNYKTTPPVLDSDGSFFLYSKLTVDKSRWQQGNVFSCSVMHEALHNHYTQESLSLSP
light: DIVMTQSPLSLPVTPGEPASISCQASESLVHSNRNTYLHWYLQKPGQSPQLLIYKVSNRFSGVPDRFSGSGSGTDFTLKISRVEAEDVGVYYCSQNTHVPPTFGQGTKVEIERTVAAPSVFIFPPSDEQLKSGTASVVCLLNNFYPREAKVQWKVDNALQSGNSQESVTEQDSKDSTYSLSSTLTLSKADYEKHKVYACEVTHQGLSSPVTKSFNRGEC
notes: Heterodimerized anti-glypican-3 IgG1 variant
[1]
  KD ratio 1 (KD of GpH7-G1d/GpL16-k0 divided by KD of the antibody): 23 fold
  KD ratio 2 (KD of GpH7-A5/GpH7-B3/GpL16-k0 divided by KD of the antibody): 30 fold
[2]
  Kd: 54 nM
[3]
  KD ratio (KD of GpH7-A5/GpH7-B78/GpL16-k0 divided by KD of the antibody): 1 fold
[4]
  Kd: 54 nM

B2: GpH7-TA54/GpH7-B78/GpL16-k0 (antibody, human IgG1, kappa)
heavy 1: B1 heavy 2 with L232Y, G234W, Y294W, S296A, L328A, E330I, D354K, H433R, E437K
heavy 2: B1 heavy 2
light: B1 light
notes: as for B1
[5]
  KD ratio (KD of GpH7-TA22/GpH7-B78/GpL16-k0 divided by KD of the antibody): 1.3 fold
[6]
  Kd: 1 nM

B3: GpH7-TA52/GpH7-B78/GpL16-k0 (antibody, human IgG1, kappa)
heavy 1: B1 heavy 2 with L232Y, G234W, D237S, Y294W, S296A, L328A, E330I, D354K, H433R, E437K
heavy 2: B1 heavy 2
light: B1 light
notes: as for B1
[7]
  KD ratio (KD of GpH7-TA7/GpH7-B78/GpL16-k0 divided by KD of the antibody): 1.8 fold
[8]
  Kd: 2.3 nM

B4: GpH7-TA7/GpH7-TA58/GpL16-k0 (antibody, human IgG1, kappa)
heavy 1: B1 heavy 2 with L232Y, G234W, D237S, S296A, L328A, E330I, D354K, H433R, E437K
heavy 2: B1 heavy 2 with Y294W
light: B1 light
notes: as for B1
[7]
  KD ratio (KD of GpH7-TA7/GpH7-B78/GpL16-k0 divided by KD of the antibody): 1.2 fold
[8]
  Kd: 3.3 nM

B5: GpH7-A53/GpH7-B78/GpL16-k0 (antibody, human IgG1, kappa)
heavy 1: B1 heavy 2 with L328A, E330I, D354K, H433R, E437K
heavy 2: B1 heavy 2
light: B1 light
notes: as for B1
[3]
  KD ratio (KD of GpH7-A5/GpH7-B78/GpL16-k0 divided by KD of the antibody): 4.9 fold
[4]
  Kd: 11 nM

B6: GpH7-TA22/GpH7-TA58/GpL16-k0 (antibody, human IgG1, kappa)
heavy 1: B1 heavy 2 with L232Y, G234W, S296A, L328A, E330I, D354K, H433R, E437K
heavy 2: B1 heavy 2 with Y294W
light: B1 light
notes: as for B1
[5]
  KD ratio (KD of GpH7-TA22/GpH7-B78/GpL16-k0 divided by KD of the antibody): 10 fold
[6]
  Kd: 1.3 nM

B7: GpH7-A57/GpH7-B78/GpL16-k0 (antibody, human IgG1, kappa)
heavy 1: B1 heavy 2 with D354K, H433R, E437K
heavy 2: B1 heavy 2
light: B1 light
notes: the chains differ only in D356K/H435R against K439E
[1]
  KD ratio 1 (KD of GpH7-G1d/GpL16-k0 divided by KD of the antibody): 199 fold
  KD ratio 2 (KD of GpH7-A5/GpH7-B3/GpL16-k0 divided by KD of the antibody): 263 fold
[2]
  Kd: 6.2 nM
[3]
  KD ratio (KD of GpH7-A5/GpH7-B78/GpL16-k0 divided by KD of the antibody): 8.7 fold
[4]
  Kd: 6.2 nM
